In article PMC12395675:

Legend:
[1] = viral titre at 24 hpi, MOI 0.01; conditions: glycan lost; control: rPEDV-WT
[2] = BAC transfection of Vero cells; CPE, western blot; conditions: glycan lost; control: rPEDV-WT

| Protein | other: viral replication [1] | other: virus rescue (viability), other: viruses recovered/attempts [2] |
| --- | --- | --- |
| spike (S) protein: N62Q (protein) parent chain: MKSLTYFWLFLPVLSTLSLPQDVTRCSANTNFRRFFSKFNVQAPAVVVLGGYLPIGENQGVNSTWYCAGQHPTASGVHGIFVSHIRGGHGFEIGISQEPFDPSGYQLYLHKATNGNTNATARLRICQFPSIKTLGPTANNDVTTGRNCLFNKAIPAHMSEHSVVGITWDNDRVTVFSDKIYYFYFKNDWSRVATKCYNSGGCAMQYVYEPTYYMLNVTSAGEDGISYQPCTANCIGYAANVFATEPNGHIPEGFSFNNWFLLSNDSTLVHGKVVSNQPLLVNCLLAIPKIYGLGQFFSFNQTIDGVCNGAAVQRAPEALRFNINDTSVILAEGSIVLHTALGTNFSFVCSNSSDPHLATFATPLGATQVPYYCFLKVDTYNSTVYKFLAILPPTVREIVITKYGDFYVNGFGYLHLGLLDAVTINFTGHGTDDDVSGFWTIASTNFVDALIEVQGTAIQRILYCDDPVSQLKCSQVSFDLDDGFYPISSRNLLSHEQPISFVTLPSFNDHSFVNITVSASFGGHSGANLIASDTTINGFSSFCVETRQFTISLFYNVTNSYGYVSKSQDSNCPFTLQSVNDYLSFSKFCVSTSLLASACTIDLFGYPEFGSGVKFTSLYFQFTKGELITGTPKPLVGVTDVSFMTLDVCTKYTIYGFKGEGIITLTNSSFLAGIYYTSDSGQLLAFKNVTSGAVYSVTPCSFSEQAAYVDDDIVGVISSLSNSTFNSTRELPGFFYHSNDGSNCTEPVLVYSNIGVCKSGSIGYVLSKSGQVKIAPTVTGNISIPTNFSMSIRTEYLQLYNTPVSVDCATYVCNGNSRCKQLLTQYIAACKTIESALQLSARLESAEVNSMLTISEEALQLATISSFNGDGYNFTNVLGVSVRDPASGRVVQKRSFIEDLLFNKVVTNGLGTVDEDYKRCSNGRSVADLVCAQYYSGVMVLPGVVDAEKLHMYSASLIGGMVLGGFTAAAALPFSYAVQARLNYLALQTDVLQRNQQLLAESFNSAIGDITSAFESVKEAISQTSKGLNTVAHALTKVQEVVNSQGAALTQLTVQLQHNFQAISSSIDDIYSRLDILSADVQVDRLITGRLSALNAFVAQTLTKYTEVQASRKLAQQKVNECVKSQSQRYGFCGGDGEHIFSLVQAAPQGLLFLHTVLVPGDFVDVIAIAGLCVNDEIALTLREPGLVLFTHELQNHTATEYFVSSRRMFEPRKPTVSDFVQIESCVVTYVNLTRDQLPDVIPDYIDVNKTLYEILASLPNRTGPSLPLDVFNATYLNLTGEIADLEQRSESLRNTTEELQSLIYNINNTLVDLEWLNRVETYIKWPWWVWLIIFIVLIFVVSLLVFCCISTGCCGCCGCCGACFAGCCRGPRLQPYEAFEKVHVQ | no change | no change |
| spike (S) protein: N300Q (protein) parent chain: MKSLTYFWLFLPVLSTLSLPQDVTRCSANTNFRRFFSKFNVQAPAVVVLGGYLPIGENQGVNSTWYCAGQHPTASGVHGIFVSHIRGGHGFEIGISQEPFDPSGYQLYLHKATNGNTNATARLRICQFPSIKTLGPTANNDVTTGRNCLFNKAIPAHMSEHSVVGITWDNDRVTVFSDKIYYFYFKNDWSRVATKCYNSGGCAMQYVYEPTYYMLNVTSAGEDGISYQPCTANCIGYAANVFATEPNGHIPEGFSFNNWFLLSNDSTLVHGKVVSNQPLLVNCLLAIPKIYGLGQFFSFNQTIDGVCNGAAVQRAPEALRFNINDTSVILAEGSIVLHTALGTNFSFVCSNSSDPHLATFATPLGATQVPYYCFLKVDTYNSTVYKFLAILPPTVREIVITKYGDFYVNGFGYLHLGLLDAVTINFTGHGTDDDVSGFWTIASTNFVDALIEVQGTAIQRILYCDDPVSQLKCSQVSFDLDDGFYPISSRNLLSHEQPISFVTLPSFNDHSFVNITVSASFGGHSGANLIASDTTINGFSSFCVETRQFTISLFYNVTNSYGYVSKSQDSNCPFTLQSVNDYLSFSKFCVSTSLLASACTIDLFGYPEFGSGVKFTSLYFQFTKGELITGTPKPLVGVTDVSFMTLDVCTKYTIYGFKGEGIITLTNSSFLAGIYYTSDSGQLLAFKNVTSGAVYSVTPCSFSEQAAYVDDDIVGVISSLSNSTFNSTRELPGFFYHSNDGSNCTEPVLVYSNIGVCKSGSIGYVLSKSGQVKIAPTVTGNISIPTNFSMSIRTEYLQLYNTPVSVDCATYVCNGNSRCKQLLTQYIAACKTIESALQLSARLESAEVNSMLTISEEALQLATISSFNGDGYNFTNVLGVSVRDPASGRVVQKRSFIEDLLFNKVVTNGLGTVDEDYKRCSNGRSVADLVCAQYYSGVMVLPGVVDAEKLHMYSASLIGGMVLGGFTAAAALPFSYAVQARLNYLALQTDVLQRNQQLLAESFNSAIGDITSAFESVKEAISQTSKGLNTVAHALTKVQEVVNSQGAALTQLTVQLQHNFQAISSSIDDIYSRLDILSADVQVDRLITGRLSALNAFVAQTLTKYTEVQASRKLAQQKVNECVKSQSQRYGFCGGDGEHIFSLVQAAPQGLLFLHTVLVPGDFVDVIAIAGLCVNDEIALTLREPGLVLFTHELQNHTATEYFVSSRRMFEPRKPTVSDFVQIESCVVTYVNLTRDQLPDVIPDYIDVNKTLYEILASLPNRTGPSLPLDVFNATYLNLTGEIADLEQRSESLRNTTEELQSLIYNINNTLVDLEWLNRVETYIKWPWWVWLIIFIVLIFVVSLLVFCCISTGCCGCCGCCGACFAGCCRGPRLQPYEAFEKVHVQ | no change | no change |
| spike (S) protein: N1261Q (protein) parent chain: MKSLTYFWLFLPVLSTLSLPQDVTRCSANTNFRRFFSKFNVQAPAVVVLGGYLPIGENQGVNSTWYCAGQHPTASGVHGIFVSHIRGGHGFEIGISQEPFDPSGYQLYLHKATNGNTNATARLRICQFPSIKTLGPTANNDVTTGRNCLFNKAIPAHMSEHSVVGITWDNDRVTVFSDKIYYFYFKNDWSRVATKCYNSGGCAMQYVYEPTYYMLNVTSAGEDGISYQPCTANCIGYAANVFATEPNGHIPEGFSFNNWFLLSNDSTLVHGKVVSNQPLLVNCLLAIPKIYGLGQFFSFNQTIDGVCNGAAVQRAPEALRFNINDTSVILAEGSIVLHTALGTNFSFVCSNSSDPHLATFATPLGATQVPYYCFLKVDTYNSTVYKFLAILPPTVREIVITKYGDFYVNGFGYLHLGLLDAVTINFTGHGTDDDVSGFWTIASTNFVDALIEVQGTAIQRILYCDDPVSQLKCSQVSFDLDDGFYPISSRNLLSHEQPISFVTLPSFNDHSFVNITVSASFGGHSGANLIASDTTINGFSSFCVETRQFTISLFYNVTNSYGYVSKSQDSNCPFTLQSVNDYLSFSKFCVSTSLLASACTIDLFGYPEFGSGVKFTSLYFQFTKGELITGTPKPLVGVTDVSFMTLDVCTKYTIYGFKGEGIITLTNSSFLAGIYYTSDSGQLLAFKNVTSGAVYSVTPCSFSEQAAYVDDDIVGVISSLSNSTFNSTRELPGFFYHSNDGSNCTEPVLVYSNIGVCKSGSIGYVLSKSGQVKIAPTVTGNISIPTNFSMSIRTEYLQLYNTPVSVDCATYVCNGNSRCKQLLTQYIAACKTIESALQLSARLESAEVNSMLTISEEALQLATISSFNGDGYNFTNVLGVSVRDPASGRVVQKRSFIEDLLFNKVVTNGLGTVDEDYKRCSNGRSVADLVCAQYYSGVMVLPGVVDAEKLHMYSASLIGGMVLGGFTAAAALPFSYAVQARLNYLALQTDVLQRNQQLLAESFNSAIGDITSAFESVKEAISQTSKGLNTVAHALTKVQEVVNSQGAALTQLTVQLQHNFQAISSSIDDIYSRLDILSADVQVDRLITGRLSALNAFVAQTLTKYTEVQASRKLAQQKVNECVKSQSQRYGFCGGDGEHIFSLVQAAPQGLLFLHTVLVPGDFVDVIAIAGLCVNDEIALTLREPGLVLFTHELQNHTATEYFVSSRRMFEPRKPTVSDFVQIESCVVTYVNLTRDQLPDVIPDYIDVNKTLYEILASLPNRTGPSLPLDVFNATYLNLTGEIADLEQRSESLRNTTEELQSLIYNINNTLVDLEWLNRVETYIKWPWWVWLIIFIVLIFVVSLLVFCCISTGCCGCCGCCGACFAGCCRGPRLQPYEAFEKVHVQ | no change | no change |
| spike (S) protein: N1278Q (protein) parent chain: MKSLTYFWLFLPVLSTLSLPQDVTRCSANTNFRRFFSKFNVQAPAVVVLGGYLPIGENQGVNSTWYCAGQHPTASGVHGIFVSHIRGGHGFEIGISQEPFDPSGYQLYLHKATNGNTNATARLRICQFPSIKTLGPTANNDVTTGRNCLFNKAIPAHMSEHSVVGITWDNDRVTVFSDKIYYFYFKNDWSRVATKCYNSGGCAMQYVYEPTYYMLNVTSAGEDGISYQPCTANCIGYAANVFATEPNGHIPEGFSFNNWFLLSNDSTLVHGKVVSNQPLLVNCLLAIPKIYGLGQFFSFNQTIDGVCNGAAVQRAPEALRFNINDTSVILAEGSIVLHTALGTNFSFVCSNSSDPHLATFATPLGATQVPYYCFLKVDTYNSTVYKFLAILPPTVREIVITKYGDFYVNGFGYLHLGLLDAVTINFTGHGTDDDVSGFWTIASTNFVDALIEVQGTAIQRILYCDDPVSQLKCSQVSFDLDDGFYPISSRNLLSHEQPISFVTLPSFNDHSFVNITVSASFGGHSGANLIASDTTINGFSSFCVETRQFTISLFYNVTNSYGYVSKSQDSNCPFTLQSVNDYLSFSKFCVSTSLLASACTIDLFGYPEFGSGVKFTSLYFQFTKGELITGTPKPLVGVTDVSFMTLDVCTKYTIYGFKGEGIITLTNSSFLAGIYYTSDSGQLLAFKNVTSGAVYSVTPCSFSEQAAYVDDDIVGVISSLSNSTFNSTRELPGFFYHSNDGSNCTEPVLVYSNIGVCKSGSIGYVLSKSGQVKIAPTVTGNISIPTNFSMSIRTEYLQLYNTPVSVDCATYVCNGNSRCKQLLTQYIAACKTIESALQLSARLESAEVNSMLTISEEALQLATISSFNGDGYNFTNVLGVSVRDPASGRVVQKRSFIEDLLFNKVVTNGLGTVDEDYKRCSNGRSVADLVCAQYYSGVMVLPGVVDAEKLHMYSASLIGGMVLGGFTAAAALPFSYAVQARLNYLALQTDVLQRNQQLLAESFNSAIGDITSAFESVKEAISQTSKGLNTVAHALTKVQEVVNSQGAALTQLTVQLQHNFQAISSSIDDIYSRLDILSADVQVDRLITGRLSALNAFVAQTLTKYTEVQASRKLAQQKVNECVKSQSQRYGFCGGDGEHIFSLVQAAPQGLLFLHTVLVPGDFVDVIAIAGLCVNDEIALTLREPGLVLFTHELQNHTATEYFVSSRRMFEPRKPTVSDFVQIESCVVTYVNLTRDQLPDVIPDYIDVNKTLYEILASLPNRTGPSLPLDVFNATYLNLTGEIADLEQRSESLRNTTEELQSLIYNINNTLVDLEWLNRVETYIKWPWWVWLIIFIVLIFVVSLLVFCCISTGCCGCCGCCGACFAGCCRGPRLQPYEAFEKVHVQ | no change | no change |
